Reference: ChEMBL document CHEMBL2074562, “Substrate specificity of the rat liver Na(+)-bile salt cotransporter in Xenopus laevis oocytes and in CHO cells” (Am J Physiol, 1998)

Experiments:
Format in all cases: functional, cell-based
[1] = substrate: C[C@]12CC[C@@H]3c4ccc(OS(=O)(=O)O)cc4CC[C@H]3[C@@H]1CCC2=O; assay: (§1) TP_TRANSPORTER: uptake in Ntcp-expressing CHO cells
[2] = substrate: C[C@H](CCC(=O)NCC(=O)O)[C@H]1CC[C@H]2[C@@H]3[C@H](O)C[C@@H]4C[C@H](O)CC[C@]4(C)[C@H]3C[C@H](O)[C@]12C; assay: as §1
[3] = substrate: C[C@H](CCC(=O)NCCS(=O)(=O)O)[C@H]1CC[C@H]2[C@@H]3[C@H](O)C[C@@H]4C[C@H](O)CC[C@]4(C)[C@H]3CC[C@]12C; assay: as §1

B1: Hepatic sodium/bile acid cotransporter (Rattus norvegicus) (protein)
chain: MEVHNVSAPFNFSLPPGFGHRATDKALSIILVLMLLLIMLSLGCTMEFSKIKAHLWKPKGVIVALVAQFGIMPLAAFLLGKIFHLSNIEALAILICGCSPGGNLSNLFTLAMKGDMNLSIVMTTCSSFSALGMMPLLLYVYSKGIYDGDLKDKVPYKGIMISLVIVLIPCTIGIVLKSKRPHYVPYILKGGMIITFLLSVAVTALSVINVGNSIMFVMTPHLLATSSLMPFSGFLMGYILSALFQLNPSCRRTISMETGFQNIQLCSTILNVTFPPEVIGPLFFFPLLYMIFQLAEGLLIIIIFRCYEKIKPPKDQTKITYKAAATEDATPAALEKGTHNGNIPPLQPGPSPNGLNSGQMAN
[1]
  Km: 27 µM
[2]
  Km: 27 µM
[3]
  Km: 5 µM
